Measured values published in the nanobody polyreactivity screen of Harvey et al. (2022).

Test: yeast display, Sf9 membrane polyspecificity reagent, FACS + sequencing; frameworks hold sequencing errors
Method in brief: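 After 36–48 hours of galactose induction, yeast (Saccharomyces cerevisiae BJ5465) displaying a synthetic nanobody library were stained at 4 °C for 1 hour with 10% biotinylated, detergent-solubilized Sf9 membrane reagent. Streptavidin microbeads enriched the stained cells before FACS sorting into low and high (top ~1%) gates on anti-HA and streptavidin fluorescence. Each clone's polyreactivity label reflects its gate of origin.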

| Sequence | polyreactivity (PSR sort gate) |
| --- | --- |
| QVQLVESGGGLVQAGGRLRLSCAASGLICNANPMGWYRQAPGKEREFVAAITTSGGKTYYADSVKGRFTISRDNAKYTVYLQMNSLKPEDTAVYYCAATDLYFWYPYWFAFEYDYWGLGTQVTVSS | high polyreactivity |
| QVQLVESGGGLVQAGGRLRLSCAASGLIFYKYAMGWYRQAPGKERELVAAISSRTGSTSYADSVKGRFTISRDNAKNTVYLQMNSLKPEDTAVYYCAARPRYNEYGYWGQGTQVTVSS | high polyreactivity |
| QVQLVESGGGLVQAGGRLRLSCAASGLTFEYNAMGWYRQAPGKERELVASISSGGGTNYADSVKGRFTISRDNAKNTVYLQMNSLKPVDTAVYYCATDNYDWSCWAFRGYWYDYWGQGTQVTVSS | low polyreactivity |
| QVQLVESGGGLVQAGGRLRLSCAASGLTFKSYTMGLYRQAPGKERELVATISGSGTRTYYADSVKGRYTISRDNAKNTVFLQMNSLKPEDTAVYYCARVILYNNYFRYSGYRYDYWGQGTQGTVSS | high polyreactivity |
| QVQLVESGGGLVQAGGRLRLSCAASGLTFPPNAMGWYRQAPGKERELVADSGGSTNYADSVKGRFTISRDNAKNTVYLQMNSLKPEDTAVYYCAAPPYSDGQWDDYWGQGTQVTVSS | low polyreactivity |
| QVQLVESGGGLVQAGGRLRLSCAASGLTFPRNAMGWYRQAPGKERELVAAISWRGSSTYYADSVKGRFTISRDNAKNTVFLQMNSLQPEDTAVYYCAASYAGGQHDYWGQGTQVTVSS | high polyreactivity |
| QVQLVESGGGLVQAGGRLRLSCAASGLTFTYNAMGWYRQEPGKERELVAAITSGGNTNYADSVKGRFTISRDNAKNTVYLQMNSLKPEDTAVYYCATDRKNGISGRYGYWGQGTQVTVSS | low polyreactivity |
| QVQLVESGGGLVQAGGRLRLSCAASGRICIIYALGWYRQAPGKEREFVAAITSSGGSTYYADSVKGRFTISRDNAKNTVYLQMNSLTPEDTAVYYCAARVTKLRTSSLRGYWGQGTQVTVSS | high polyreactivity |
| QVQLVESGGGLVQAGGRLRLSCAASGRIFAYYAMGWYRQAPGKERELVAGISQRGSRTYYADSVKGRFTNSRDNAKNTVYLQMNSLTPEDTAVYYCAARDRRTVTMDYWGQGTQVTVSS | high polyreactivity |
| QVQLVESGGGLVQAGGRLRLSCAASGRIFDPYAMGWCRQAPGKESELVASISWSGGRTYYADSVKGRFTISRDNAKNTVYLQMNSLKPEDTAVYYCAAREWYRYKVRFDYWGQGTQVTVSS | high polyreactivity |
| QVQLVESGGGLVQAGGRLRLSCAASGRIFFYYAMGWYRQAPGKERELVAAITSGGNTNYADSVKGRFTISRDNAKNTVYLQMNSLKPEDTAVYYCNKDLYADGQYNYDYWGQGTQVTVSS | low polyreactivity |
| QVQLVESGGGLVQAGGRLRLSCAASGRIFGFNAMGWYRQAPGKERELVAAIDGNDASTFYADSGKGRFTISRDNAKNTDYFQMNSLKPEDTAVYYCAAESSYVYLGWREYWGQGTQVTVSS | high polyreactivity |
| QVQLVESGGGLVQAGGRLRLSCAASGRIFGSYAMGWYRQAPGKERELVAAITFSGVNTYYADSVKGRFTISRDNAKNTVYLQMNRLKPEDTAVYYCAVRGPEAEYDYWGQGTQVTVSS | high polyreactivity |
| QVQLVESGGGLVQAGGRLRLSCAASGRIFKPNAMGSYRQAPGKEREFVARITRNTGSTYYADSVKGRFSISRDNEKNTVYLQMNSLKPEDNAVYDCAAGAPSYYYYWGHGTQVTVSS | high polyreactivity |
| QVQLVESGGGLVQAGGRLRLSCAASGRIFPVNAMGWYRQAPGKERELVAGITWSGDGSTYYADSVKGRFTISRDNAKNTVYLQMNSLKPEDTAVYYCAARLNLQGRYDYSGQGTQVTVSS | low polyreactivity |
| QVQLVESGGGLVQAGGRLRLSCAASGRIFTRYAMGWYRQAPGKERELVAAINYRGSSTYYADSVKGRFTISRDNAKNTVYLQMNSLKPEDTAVYYCNTYGQTDTYWRYYYWGQGTQVTVSS | high polyreactivity |
| QVQLVESGGGLVQAGGRLRLSCAASGRIFYFNAMGWYRQAPGKEREFVASINSIGDSTYYADSVKGRFTISRDNAKNTVYLQMNSLKPEDTAVYYCNADHGVINYRLDYWGQGTQVTVSS | low polyreactivity |
| QVQLVESGGGLVQAGGRLRLSCAASGRIFYNYAMGWYRQAPGKERELVAAISGSGGSTYYADSVKGRFTISRDNAKNTVYLQMNCLKPDDTAVYYCSTSGPQYYSRNFDYWGQGTQVTVSS | low polyreactivity |
| QVQLVESGGGLVQAGGRLRLSCAASGRIFYVYAMGGYRQAPGKERELVAAISRGGSTNSADSVKGRFTISRDNAKNTVYLQMNSLKPEDTAVYYCAASSLPHYSYRHSYLYVYWGQCTQVTVSS | low polyreactivity |
| QVQLVESGGGLVQAGGRLRLSCAASGRIYRRNTMGWYRQAPGKERELVAAITSSGGSTYADSVKGRFTISRDNAKNTVYLQMNSLKPEDTAVYYCATYVAYHRGYRTYDHWGQGTQVTVSS | low polyreactivity |
| QVQLVESGGGLVQAGGRLRLSCAASGRTFAYYAMGWYRQAPGKERELVASITTRDGSTYYADSVKGRFTISRDNAKNTVYLQMNSLKPEDTAVYYCAAATEYSSGYEYDYWGQGTQVTVSS | low polyreactivity |
